Literature values as cited in paper PMC12378658.

What was measured:
TSLPR (Homo sapiens) = TSLPR (Homo sapiens) (UniProt Q9HC73)
[1] = biological target: TSLP:TSLPR complex (Homo sapiens) (UniProt Q969D9)

Sequence of UniProt Q9HC73 (Q9HC73 23-231): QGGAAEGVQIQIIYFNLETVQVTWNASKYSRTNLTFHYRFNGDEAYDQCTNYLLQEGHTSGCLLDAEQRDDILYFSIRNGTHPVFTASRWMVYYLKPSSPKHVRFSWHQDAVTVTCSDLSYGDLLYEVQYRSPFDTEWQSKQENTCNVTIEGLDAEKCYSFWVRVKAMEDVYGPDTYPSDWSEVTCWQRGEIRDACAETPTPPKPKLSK

Row | Substance | Kd (TSLPR (Homo sapiens)) [nM] | Kd [1] [nM]
1 | TSLP (from UniProt Q969D9) | 32 | 
2 | IL-7Rα (from UniProt P16871) |  | 29
